From patent publication US20210246166A1 (Bayer, published 2021)
Bridge positions count the residues as written; N and C are the ends. Square brackets hold non-standard residues; d marks the D form. Ends that are not written are not given here. * marks the point of attachment. Oic = O=C(O)[C@@H]1C[C@@H]2CCCC[C@@H]2N1; Butanoyl(3,3-Me2) = CC(C)(C)CC(=O)*; aIle = CC[C@@H](C)[C@H](N)C(=O)O; tBuAla = CC(C)(C)C[C@H](N)C(=O)O; Abu(4-CN) = N#CCC[C@H](N)C(=O)O; Pen = CC(C)(S)[C@H](N)C(=O)O; Phg = N[C@H](C(=O)O)c1ccccc1; NMeC = CN[C@@H](CS)C(=O)O; Sar = CNCC(=O)O

T1: recombinant human MASP1 active protease (amino acids 297-699, C-terminal His Tag) (human, UniProt P48740 297-699)
T1 sequence: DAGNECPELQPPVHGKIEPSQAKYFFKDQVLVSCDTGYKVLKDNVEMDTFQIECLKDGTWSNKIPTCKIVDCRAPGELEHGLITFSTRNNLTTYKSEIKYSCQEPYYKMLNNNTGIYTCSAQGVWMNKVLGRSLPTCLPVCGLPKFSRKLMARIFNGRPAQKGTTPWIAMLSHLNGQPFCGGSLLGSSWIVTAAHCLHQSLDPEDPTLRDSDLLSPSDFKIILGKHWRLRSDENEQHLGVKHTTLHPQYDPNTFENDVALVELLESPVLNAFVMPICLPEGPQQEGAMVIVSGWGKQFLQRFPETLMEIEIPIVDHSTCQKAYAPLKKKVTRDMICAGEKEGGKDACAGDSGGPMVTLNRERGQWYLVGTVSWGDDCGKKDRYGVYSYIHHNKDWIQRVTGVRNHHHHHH


Tests used:
[1] = molecular target: T1, recombinant human MASP1 active protease …; assay: cell-based or functional assay
[2] = molecular target: recombinant human MASP2 active protease (amino acids 297-686, C-terminal His Tag) (human, UniProt O00187 297-686); assay: cell-based or functional assay
recombinant human MASP2 active protease (amino acids 297-686, C-terminal His Tag), sequence (O00187 other isoform, or with tags, fused parts or gaps limits assumed): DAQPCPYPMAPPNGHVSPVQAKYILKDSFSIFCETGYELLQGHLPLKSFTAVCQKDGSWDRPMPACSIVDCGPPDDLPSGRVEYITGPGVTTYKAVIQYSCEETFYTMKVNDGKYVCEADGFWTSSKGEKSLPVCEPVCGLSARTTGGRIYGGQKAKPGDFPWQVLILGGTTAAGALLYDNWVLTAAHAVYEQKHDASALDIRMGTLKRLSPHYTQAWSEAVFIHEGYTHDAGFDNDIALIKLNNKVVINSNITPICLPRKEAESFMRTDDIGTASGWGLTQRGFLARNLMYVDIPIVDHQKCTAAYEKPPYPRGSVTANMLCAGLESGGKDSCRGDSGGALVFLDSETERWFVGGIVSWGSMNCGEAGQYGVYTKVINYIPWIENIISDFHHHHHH

Row | Binder | human MASP1 IC50 [1] | human MASP2 IC50 [2]
1 | [Sar]ICSRSLP[(1R,3S,5R)‑2‑Azabicyclo(3.1.0)hexane‑3‑carboxylic acid]ICIPD-OH (disulfide 3-11) [Example 324: ((N-Me)G)-IC+SRSLP-((1R,3S,5R)-2-Azabicyclo[3.1.0]hexane-3-carboxylic acid)-IC+IPD-OH] | 23 nM | 72 nM
2 | [(2S,3S)‑2‑((3R)-3-Amino-2-oxopyrrolidin-1-yl)‑3‑methylpentanoic acid]CSRSLPPICIAD-OH (disulfide 2-10) | 26 nM | 360 nM
3 | GICSRSLP[Oic]ICIPD-OH (disulfide 3-11; N-terminus assumed; SMILES CC[C@H](C)[C@H](NC(=O)CN)C(=O)N[C@H]1CSSC[C@@H](C(=O)N[C@H](C(=O)N2CCC[C@H]2C(=O)N[C@@H](CC(=O)O)C(=O)O)[C@@H](C)CC)NC(=O)[C@H]([C@@H](C)CC)NC(=O)[C@@H]2C[C@@H]3CCCC[C@@H]3N2C(=O)[C@@H]2CCCN2C(=O)[C@H](CC(C)C)NC(=O)[C@H](CO)NC(=O)[C@H](CCCNC(=N)N)NC(=O)[C@H](CO)NC1=O) [Example 323: GIC+SRSLP-(Oic)-IC+IPD-OH] | 6.96 nM | 560 nM
4 | [tBuAla]GICSRSLP[Oic]I[Pen]IP-NH2 (disulfide 4-12; N-terminus assumed; SMILES CC[C@H](C)[C@H](NC(=O)CNC(=O)[C@@H](N)CC(C)(C)C)C(=O)N[C@H]1CSSC(C)(C)[C@@H](C(=O)N[C@H](C(=O)N2CCC[C@H]2C(N)=O)[C@@H](C)CC)NC(=O)[C@H]([C@@H](C)CC)NC(=O)[C@@H]2C[C@@H]3CCCC[C@@H]3N2C(=O)[C@@H]2CCCN2C(=O)[C@H](CC(C)C)NC(=O)[C@H](CO)NC(=O)[C@H](CCCNC(=N)N)NC(=O)[C@H](CO)NC1=O) [Example 322: ((tBu)A)-GIC+SRSLP-(Oic)-I-(Pen)+IP-NH2] | 22 nM | 150 nM
5 | [Sar]ICSRS[Abu(4-CN)]PPI[Pen]IPD-NH2 (disulfide 3-11; N-terminus assumed; SMILES CC[C@H](C)[C@H](NC(=O)CNC)C(=O)N[C@H]1CSSC(C)(C)[C@@H](C(=O)N[C@H](C(=O)N2CCC[C@H]2C(=O)N[C@@H](CC(=O)O)C(N)=O)[C@@H](C)CC)NC(=O)[C@H]([C@@H](C)CC)NC(=O)[C@@H]2CCCN2C(=O)[C@@H]2CCCN2C(=O)[C@H](CCC#N)NC(=O)[C@H](CO)NC(=O)[C@H](CCCNC(=N)N)NC(=O)[C@H](CO)NC1=O) [Example 321: ((N-Me)G)-IC+SRS-(Cnba)-PPI-(Pen)+IPD-NH2] | 22 nM | 1800 nM

Second part, the binder after the results:

Row | human MASP1 IC50 [1] | human MASP2 IC50 [2] | Binder
6 | 24 nM | 610 nM | A[aIle]CSRSLPPICIPD-NH2 (disulfide 3-11; N-terminus assumed; SMILES CC[C@@H](C)[C@H](NC(=O)[C@H](C)N)C(=O)N[C@H]1CSSC[C@@H](C(=O)N[C@H](C(=O)N2CCC[C@H]2C(=O)N[C@@H](CC(=O)O)C(N)=O)[C@@H](C)CC)NC(=O)[C@H]([C@@H](C)CC)NC(=O)[C@@H]2CCCN2C(=O)[C@@H]2CCCN2C(=O)[C@H](CC(C)C)NC(=O)[C@H](CO)NC(=O)[C@H](CCCNC(=N)N)NC(=O)[C@H](CO)NC1=O) [Example 331: A-(allo-I)C+SRSLPPIC+IPD-NH2]
7 | 23 nM | 450 nM | [Sar]ICSRSLPPIC[Phg]PD-OH (disulfide 3-11; N-terminus assumed; SMILES CC[C@H](C)[C@H](NC(=O)CNC)C(=O)N[C@H]1CSSC[C@@H](C(=O)N[C@H](C(=O)N2CCC[C@H]2C(=O)N[C@@H](CC(=O)O)C(=O)O)c2ccccc2)NC(=O)[C@H]([C@@H](C)CC)NC(=O)[C@@H]2CCCN2C(=O)[C@@H]2CCCN2C(=O)[C@H](CC(C)C)NC(=O)[C@H](CO)NC(=O)[C@H](CCCNC(=N)N)NC(=O)[C@H](CO)NC1=O) [Example 325: ((N-Me)G)-IC+SRSLPPIC+(Phg)-PD-OH]
8 | 25 nM | 2000 nM | AICSRS[(2S)‑2‑Amino‑4,4,4‑trifluorobutanoic acid]PPI[NMeC]IPD-NH2 (disulfide 3-11) [Example 337: AIC+SRS-((2S)-2-Amino-4,4,4-trifluorobutanoic acid)-PPI-((N-Me)C)+IPD-NH2]
9 | 25 nM | 180 nM | [tBuAla]ICSRSLP[Oic]I[Pen]IP-OH (disulfide 3-11; N-terminus assumed; SMILES CC[C@H](C)[C@H](NC(=O)[C@@H](N)CC(C)(C)C)C(=O)N[C@H]1CSSC(C)(C)[C@@H](C(=O)N[C@H](C(=O)N2CCC[C@H]2C(=O)O)[C@@H](C)CC)NC(=O)[C@H]([C@@H](C)CC)NC(=O)[C@@H]2C[C@@H]3CCCC[C@@H]3N2C(=O)[C@@H]2CCCN2C(=O)[C@H](CC(C)C)NC(=O)[C@H](CO)NC(=O)[C@H](CCCNC(=N)N)NC(=O)[C@H](CO)NC1=O) [Example 335: ((tBu)A)-IC+SRSLP-(Oic)-I-(Pen)+IP-OH]
10 | 25 nM | 690 nM | ICSRSLP[Oic]I[Pen]IP-NH2 (disulfide 2-10; N-terminus assumed; SMILES CC[C@H](C)[C@H](N)C(=O)N[C@H]1CSSC(C)(C)[C@@H](C(=O)N[C@H](C(=O)N2CCC[C@H]2C(N)=O)[C@@H](C)CC)NC(=O)[C@H]([C@@H](C)CC)NC(=O)[C@@H]2C[C@@H]3CCCC[C@@H]3N2C(=O)[C@@H]2CCCN2C(=O)[C@H](CC(C)C)NC(=O)[C@H](CO)NC(=O)[C@H](CCCNC(=N)N)NC(=O)[C@H](CO)NC1=O) [Example 336: IC+SRSLP-(Oic)-I-(Pen)+IP-NH2]
11 | 23 nM | 710 nM | AICSRSLP[3,3‑dimethyl‑1,3‑azasilolidine‑5‑carboxylic acid]ICIPD-NH2 (disulfide 3-11) [Example 326: AIC+SRSLP-(3,3-dimethyl-1,3-azasilolidine-5-carboxylic acid)-IC+IPD-NH2]
12 | 25 nM | 8.4 nM | {Butanoyl(3,3-Me2)}-ICSRS[tBuAla]PPI[NMeC]I-NH2 (disulfide 2-10; SMILES CC[C@H](C)[C@H](NC(=O)[C@@H]1CSSC[C@H](NC(=O)[C@@H](NC(=O)CC(C)(C)C)[C@@H](C)CC)C(=O)N[C@@H](CO)C(=O)N[C@@H](CCCNC(=N)N)C(=O)N[C@@H](CO)C(=O)N[C@@H](CC(C)(C)C)C(=O)N2CCC[C@H]2C(=O)N2CCC[C@H]2C(=O)N[C@@H]([C@@H](C)CC)C(=O)N1C)C(N)=O) [Example 333: (tert-Butylacetic acid)-IC+SRS-((tBu)A)-PPI-((N-Me)C)+I-NH2]
13 | 24 nM | 260 nM | [Sar]ICSRSLPPICI[Sar]D-OH (disulfide 3-11; N-terminus assumed; SMILES CC[C@H](C)[C@H](NC(=O)CNC)C(=O)N[C@H]1CSSC[C@@H](C(=O)N[C@H](C(=O)N(C)CC(=O)N[C@@H](CC(=O)O)C(=O)O)[C@@H](C)CC)NC(=O)[C@H]([C@@H](C)CC)NC(=O)[C@@H]2CCCN2C(=O)[C@@H]2CCCN2C(=O)[C@H](CC(C)C)NC(=O)[C@H](CO)NC(=O)[C@H](CCCNC(=N)N)NC(=O)[C@H](CO)NC1=O) [Example 329: ((N-Me)G)-IC+SRSLPPIC+I-((N-Me)G)-D-OH]
